Reference: US20140256640A1 (PAION DEUTSCHLAND, published 2014)

Target: human thrombin (human, UniProt P00734 328-622)
Assay: equilibrium titration of thrombin (20 nM) with thrombomodulin in solution, read by the change in fluorescence of the thrombin inhibitor DAPA, fitted by nonlinear regression
Description: A solution containing thrombin (20 nM), thrombomodulin (1.54 μM), and DAPA (20 nM, dansylarginine N-3-(ethyl-1,5-pentanediyl)amide, a fluorescent, reversible thrombin inhibitor) in 0.02 M Tris-HCl, 0.15 M NaCl, 5.0 mM CaCl₂, 0.01% Tween 80, pH 7.4, was added in small successive aliquots to an otherwise identical solution that lacked thrombomodulin. The additions were performed in a cuvette fitted with a magnetic stirrer in the sample compartment of a Perkin-Elmer model LS50B spectrofluorimeter. Intensity values were continuously recorded with excitation and emission wavelengths of 280 and 545 nm, respectively. A 430-nm cut-off filter was used in the emission beam. The intensity of fluorescence, I, was assumed to be the sum of intensities from thrombin-DAPA (T·D) and thrombin-thrombomodulin-DAPA (T·TM·D). That is, I=i₁·[T·D]+i₂·[T·TM·D], where i₁ and i₂ are the coefficients of fluorescence for T·D and T·TM·D (since excitation was at 280 nm, the emission from free DAPA was negligible).
Therefore, with KTM defined as the dissociation constant for the thrombin-thrombomodulin interaction, [T][TM]=KTM[T·TM]; [T·D][TM]=KTM[T·TM·D]; and ([T]+[T·D])·[TM]=KTM([T·TM]+[T·TM·D]). The last expression is identical to f·[TM]=KTM·b. Since f=1−b and [TM]=[TM]₀−b[T]₀, where [TM]₀ is the total thrombomodulin concentration, the following equation is obtained: (1−b)([TM]₀−b·[T]₀)=KTM·b. […]

B1: Solulin (recombinant human soluble thrombomodulin) (receptor)
chain: EPQPGGSQCVEHDCFALYPGPATFLNASQICDGLRGHLMTVRSSVAADVISLLLNGDGGVGRRRLWIGLQLPPGCGDPKRLGPLRGFQWVTGDNNTSYSRWARLDLNGAPLCGPLCVAVSAAEATVPSEPIWEEQQCEVKADGFLCEFHFPATCRPLAVEPGAAAAAVSITYGTPFAARGADFQALPVGSSAAVAPLGLQLMCTAPPGAVQGHWAREAPGAWDCSVENGGCEHACNAIPGAPRCQCPAGAALQADGRSCTASATQSCNDLCEHFCVPNPDQPGSYSCMCETGYRLAADQHRCEDVDDCILEPSPCPQRCVNTQGGFECHCYPNYDLVDGECVEPVDPCFRANCEYQCQPLNQTSYLCVCAEGFAPIPHEPHRCQLFCNQTACPADCDPNTQASCECPEGYILDDGFICTDIDECENGGFCSGVCHNLPGTFECICGPDSALAGQIGTDCDSGKVDGGDSGAGEPPPSPTPGSTLTPP
notes: Obtained from PAION Deutschland GmbH; also called sTM; recombinant soluble thrombomodulin
Kd: 23 nM
